Source: US9249224B2 (RINAT NEUROSCIENCE CORP., priority 2011, dated 2016)
“And” between values parts separate entries of the source, which are not always exact repeats. Identical values can stand only once.

Target: T1, human GHR (Homo sapiens, UniProt P10912)
T1 construct: his-tagged monomers of amino acids 31-235 of the extracellular domain of the human or cyno GHR
T1 sequence (P10912 49-253): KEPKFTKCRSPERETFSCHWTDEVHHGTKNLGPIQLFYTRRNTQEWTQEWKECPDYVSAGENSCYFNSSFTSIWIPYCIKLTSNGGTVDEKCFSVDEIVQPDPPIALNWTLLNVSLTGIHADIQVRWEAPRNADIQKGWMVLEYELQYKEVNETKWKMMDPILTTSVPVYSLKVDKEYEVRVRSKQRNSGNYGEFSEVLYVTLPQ
Experiment: Biacore kinetics and affinity, captured IgG, human GHR analyte, 25° C.
Format: binding
Settings: IgG immobilized by capture
Description: The affinity of a mouse anti-GHR antibody, Ab13, to human and cyno GHR was measured on a Biacore™ 2000 biosensor (GE Lifesciences™, Piscataway N.J.). An anti-mouse Ig sensor surface was prepared using a Biacore™ CM5 chip and reagents from the Biacore™ mouse antibody capture kit (GE Lifesciences™, Catalog# BR-1008-38), using instructions provided by the manufacturer.
The kinetics assay was run using a kinetic titration methodology as described in Karlsson et al., 2006, Anal. Biochem 349, 136-147. The mouse antibody, Ab13, was captured onto downstream flow cells at 0.5 μg/mL at a flow rate of 5 μL/min for 1 minute, 2 minutes and 4 minutes on flow cells 2, 3 and 4 respectively. Flow cell 1 was used as a reference surface. […]
The affinities of a humanized GHR antibody, SS1, and a chimeric molecule comprising the Fab of Ab13 fused to a human Fc domain (“Ab13-hFc”) to human and cyno GHR was measured on a Biacore™ 2000 biosensor (GE Lifesciences™ Piscataway N.J.). […]
The kinetics assay was run using a methodology with varying dissociation times as described in Katsamba et al., 2006, Anal. Biochem 352, 208-221. […] After the analyte injection, dissociation was monitored for 30 minutes (for the 400 nM GHR cycle) or 30 seconds (all other cycles) followed by regeneration of all flow cells with two 30-second injections of 75 mM phosphoric acid. […]

B1: SS1: humanized GHR antagonist antibody; VL SEQ ID NO: 7, VH SEQ ID NO: 8; hIgG2Δa heavy chain SEQ ID NO: 134, light chain SEQ ID NO: 135 (antibody)
heavy: EVQLVESGGGLVKPGGSLRLSCAASGFTFSDAWMDWVRQAPGKGLEWVAEIRSKANYHATYYAESVKGRFTISRDDSKNTLYLQMNSLKTEDTAVYYCTLIRDYWGQGTLVTVSSASTKGPSVFPLAPCSRSTSESTAALGCLVKDYFPEPVTVSWNSGALTSGVHTFPAVLQSSGLYSLSSVVTVPSSNFGTQTYTCNVDHKPSNTKVDKTVERKCCVECPPCPAPPVAGPSVFLFPPKPKDTLMISRTPEVTCVVVDVSHEDPEVQFNWYVDGVEVHNAKTKPREEQFNSTFRVVSVLTVVHQDWLNGKEYKCKVSNKGLPSSIEKTISKTKGQPREPQVYTLPPSREEMTKNQVSLTCLVKGFYPSDIAVEWESNGQPENNYKTTPPMLDSDGSFFLYSKLTVDKSRWQQGNVFSCSVMHEALHNHYTQKSLSLSPGK
light: EIVLTQSPGTLSLSPGERATLSCTATSSVSSSYLNWYQQKPGQAPRLLIYSTSNLASGIPDRFSGSGSGTDFTLTISRLEPEDFAVYYCHQYHRSTPTFGGGTKVEIKRTVAAPSVFIFPPSDEQLKSGTASVVCLLNNFYPREAKVQWKVDNALQSGNSQESVTEQDSKDSTYSLSSTLTLSKADYEKHKVYACEVTHQGLSSPVTKSFNRGEC
modifications: Humanized and/or affinity matured antibody sequence
ka: 77000 M⁻¹ s⁻¹ and 74000 M⁻¹ s⁻¹
kd: 6.4e-05 s⁻¹ and 7.7e-05 s⁻¹
